Test results from the supplement of paper PMC10567573.
± gives the standard deviation.

Experiment: protein stability index of a GFP-peptide fusion (GPS, HEK-293T) (PSI 1-6); higher = more stable
Details: c terminus: a fixed tail appended
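Also: 24-mer peptide tiles fused after GFP, lentivirally expressed, FACS-sorted into six equal bins by GFP/DsRed ratio, decoded by Illumina sequencing, PSI is the read-weighted mean bin number.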

Row | Sequence | protein stability index (treatment: DMSO) | protein stability index (treatment: MLN4924 1 uM, 8 h)
1 | DVLAHQVPNAKKLRRKEQLWEKLA [NOP53] | 2.84 ± 0.36 | 3.09 ± 0.29
2 | LLTHRCLRDEHRCASKYGRDWERY [DHCR7] | 2.26 ± 0.27 | 2.38 ± 0.11
3 | GEAGWGAGEGRLGHKRKQPLPKRV [FOXJ1] | 4.5 ± 0.16 | 4.59 ± 0.26
4 | EAPEAELSQAPAEGPDLVPAALGS [HES6] | 5.5 ± 0.31 | 5.41 ± 0.35
5 | KESMSEADRAQKMDGESEEEQESV [EHMT1] | 5.71 ± 0.35 | 5.59 ± 0.23
6 | LPVPPTPGLLSLATTSASDSLKPE [TFE3] | 4.87 ± 0.26 | 5.04 ± 0.29
7 | EILEQQQQERNDTNFHGVCMFCNE [ZNF277] | 3.73 ± 0.37 | 3.77 ± 0.43
8 | SPNRSLPSPGVLCGSARPKPYDPP [ATF4] | 3.67 ± 0.19 | 3.72 ± 0.26
9 | KSRLSSVSVTYCSVSQDFPGSNLN [ETS2] | 2.62 ± 0.26 | 2.64 ± 0.18
10 | FEAEPLPENTNRQLLLQFERLVVL [PI4K2A] | 2.12 ± 0.1 | 2.14 ± 0.26
11 | SQPAVELVSGSQSALGPPPAASNS [CLINT1] | 5.04 ± 0.31 | 5.21 ± 0.33
12 | PELSYRVCVGSDVTSIHKYMVRRY [MYORG] | 2.31 ± 0.14 | 2.27 ± 0.24
13 | RPQPRGLLGWGYYLIMLPFRFTYY [FAF2] | 3.86 ± 0.18 | 3.48 ± 0.077
14 | NHSLARHADILAAVETRLSLLNMT [FBXO28] | 2.53 ± 0.13 | 2.71 ± 0.19
15 | ALAGYTGSGPIQLWQFLLELLTDK [ETS1] | 2.35 ± 0.13 | 2.48 ± 0.31
16 | PVLRPMDLMVEATPRRVFANAHTY [PPP2R2B] | 2.68 ± 0.17 | 2.82 ± 0.075
17 | GEEEAESSISSTSNEQLKVTQEPR [ZMYND11] | 5.59 ± 0.11 | 5.46 ± 0.28
18 | AKKFRKAVTDLLGRRQRKSEKRRD [WASL] | 3.88 ± 0.52 | 3.89 ± 0.2
19 | LYGQRNSAPEQELLVQDATPVSNS [GFOD1] | 4.82 ± 0.098 | 4.76 ± 0.11
20 | LSVCPLEGSREHAFQITGVWDASR [PLEKHN1] | 2.88 ± 0.24 | 3.38 ± 0.37
21 | GAERKAALCELLEKETQIIASIGR [IQUB] | 3.21 ± 0.61 | 3.2 ± 0.2
22 | HVSYRELGACVRTAVAQGGWRSLW [SLC25A39] | 2.01 ± 0.19 | 2.13 ± 0.2
23 | SFLRDHSYATEADIISTVEFNHTG [PPP2R2B] | 3.65 ± 0.15 | 3.58 ± 0.19

Row | Sequence | protein stability index (treatment: DMSO) | protein stability index (treatment: MLN4924 1 uM, 8 h)
24 | LGSAGAQYEKYSFRGFPPEDLMPL [P3H4] | 2.87 ± 0.52 | 2.86 ± 0.17
25 | SSSTPLEDEEPQEPNRLETGEAGE [RTN2] | 5.51 ± 0.34 | 5.56 ± 0.3
26 | SALQSLLQHLIGLSNLTHVLYPVP [PRAME] | 3.36 ± 0.28 | 3.2 ± 0.16
27 | AASSYSFSDLNSTRGDADMYDLPK [EMD] | 4.43 ± 0.23 | 4.53 ± 0.26
28 | KLYHQSKGPGAPQYPAGTQGEQLE [SPSB2] | 4.72 ± 0.29 | 5 ± 0.32
29 | TDLKTLCCEFLEGCIAAENCIGIR [GAN] | 2.35 ± 0.4 | 2.48 ± 0.2
30 | CSVFPATDAPEQFISQVTVLKYFS [PLK2] | 2.49 ± 0.55 | 2.56 ± 0.5
31 | RDDLDRLGVFLDYEAGVLAFYDVT [TRIM14] | 2.55 ± 0.31 | 2.06 ± 0.53
32 | ESLEPDAQVLMLGQILELPWKEET [FANCE] | 4.17 ± 0.11 | 4.17 ± 0.33
33 | RIQTQKEQAKENENGELQKIILPR [ZC2HC1C] | 4.77 ± 0.21 | 4.51 ± 0.41
34 | VPAPQPPVTKPLFPSAGQAQAAVQ [ZNF207] | 4.39 ± 0.41 | 4.59 ± 0.18
35 | LRKSIFSESRKPTVSIMEPGETRR [TRIM29] | 3.66 ± 0.32 | 3.93 ± 0.58
36 | LRHKDEEEEDDDDIHITARIESDL [DRICH1] | 5.41 ± 0.12 | 5.37 ± 0.18
37 | EPVAAEPKQSGSFRYLQGMLEAGE [PDLIM4] | 4.6 ± 0.11 | 4.6 ± 0.11
38 | ELLGVHPGASTEEVKRAFFSKSKE [DNAJC4] | 3.8 ± 0.19 | 4.08 ± 0.42
39 | YSLMKRQMMSATAQNREPESVEQL [SNX8] | 4.37 ± 0.38 | 4.48 ± 0.19
40 | LAHMIAECKKLFQVPEEMSRCRNS [DLC1] | 2.67 ± 0.34 | 2.68 ± 0.34
41 | REDDKLVVECVMKGVTSTRVYERA [FABP4] | 3.68 ± 0.38 | 4.09 ± 0.29
42 | AQKESLQNQHHSASLQASIFSGAA [APBB1IP] | 4.03 ± 0.22 | 3.98 ± 0.26
43 | VSAQRERPRRRDGPEHATRLNGTA [DVL3] | 4.7 ± 0.17 | 4.81 ± 0.21
44 | VGTGTFGRVHLVKEKTAKHFFALK [PRKX] | 2.46 ± 0.15 | 2.85 ± 0.17
45 | EEKQASLWVQGDIFRSKLKNRPSS [CDC14A] | 3.89 ± 0.049 | 4 ± 0.25
